The values below come from patent US20230310702A1, “SELF-ASSEMBLING PEPTIDES, PREPARATION METHODS, SELF-ASSEMBLING PEPTIDE FORMULATIONS AND USE” (Success Bio-Tech Co., Ltd., priority 2020, published 2023).

Entries after “also recorded” stand apart in the source; their conditions may differ.

Data set [1] in a line: Rheological property detection (storage modulus of triggered gel). Type of data set: physicochemical. The following applies: concentration of 2.5%; after contact with a metallic ion or change pH value. As for the experimental part: (§1) Peptide solutions with different concentrations were prepared, and an appropriate amount of 10×PBS was added such that the final PBS concentration of the solution was 1×, after the solution was in contact with PBS to be triggered to be gel, the gel was taken out slowly with a spoon and placed onto a rheometer plate. A 40 mm plate was placed leaving the gap of about 450 µm, and kept at 37° C. for 5 minutes under a pressure of 1 pa, and frequency scanning was at 0.1 hz-10 hz. […] The highest concentration of the solution was set with the reference to the highest concentration at which a gel will not form immediately when the peptide was fully dissolved, according to which peptide solutions with a serial of diluted concentrations were prepared to perform storage modulus detections. For peptides represented by ① and ② in which the head and the tail are Pro, the storage modulus were able to reach 1000pa or higher after the PBS triggered the gelation, whereas before gelation, the solution can also maintain good fluidity.

A short description of data set [2]: Viscosity testing of peptide solution (rheometer). Type of data set: physicochemical. Conditions: shear rate 10 1/s. As to the method:
A peptide solution was prepared, a 50 mm plate was chosen for the rheometer, a 1 mm gap was set, and 2 ml of the peptide solution was taken, and placed in the gap under the plate. The shear rate was set as 10 1/s. Average values were recorded.

A short description of data set [3]: Fluidity / viscosity of peptide solutions on dissolution (observation). Type of data set: physicochemical. The following applies: for viscosity during dissolution: with increasing concentration. As for the experimental part: as §1
Data set [4] relates to stomach mucosa (posterior submucosal layer). Description: Rabbit stomach submucosal injection. Type of data set: in vivo, New Zealand rabbit. The following applies: 0.5 ml injected, 25G needle, observed 30 min. As for the experimental part: After a New Zealand rabbit was fastened for 24 hours, injection anesthesia was conducted from the ear vein, the abdomen was then opened, afterwards a stoma was made in the anterior wall of the stomach to expose a stomach mucosa, and 0.5 ml of normal saline was injected into a posterior submucosal layer using a 25G needle. After being observed for 30 min, the rabbit was sacrificed, a tissue was then taken out and fixed in formalin for 2 days, embedded by paraffin, sectioned, and finally stained with hematoxylin and eosin (FIG. 8A). 0.5 ml of a 10 mg/ml sodium hyaluronate solution (FIG. 8B) and 0.5 ml of a 3% peptides ① water solution (FIG. 8C) were injected by the same method.

In another data set the test system is rabbit back skin wound. Description: Rabbit hemostasis experiment on the back. Type of data set: in vivo, New Zealand rabbits. As for the experimental part:
Hemostatic procedures: a peptide aqueous solution ① with a concentration of 3% was prepared for rabbit hemostasis on the back. After injection of anesthesia via ear veins in New Zealand rabbits, a skin incision of about 1.5 cm was made on the back, and an incision depth was made until a blood vessel ruptured, and blood flowed out. After the blood flowed out was wiped off with a gauze, the peptide aqueous solution was sprayed onto a wound site immediately, and timing was conducted. In the hemostatic process, oozed blood was wiped constantly with a gauze, until no blood flowed out, and the timing was stopped, and after 1 minute, excess gel was removed, and the wound was observed whether the blood further oozed out.

The test system of data set [5] is colonic mucosa (submucosal layer). Briefly: Colonic submucosal injection of rabbits. Type of data set: in vivo, New Zealand rabbit. Conditions: 0.5 ml injected, 25G needle, observed 30 min; colon. As for the experimental part:
A New Zealand rabbit was fastened for 24 hours, injection of anesthesia was conducted via the ear vein, the abdomen was then opened, afterwards an open cutting was conducted along a midline of a colon to expose the colonic mucosa, 0.5 ml of normal saline was injected into the submucosal layer using a 25G needle. After observing for 30 min, the rabbit was sacrifice, a tissue was then taken out and fixed in formalin for 2 days, embedded by paraffin, sectioned, and finally stained with hematoxylin and eosin (FIG. 9B). 0.5 ml of a 10 mg/ml sodium hyaluronate solution (FIG. 9C) and 0.5 ml of a 3% peptide aqueous solution ① (FIG. 9D) were injected by the same method. An untreated normal tissue was used as a control (FIG. 9A).

A further data set concerns liver wound. Description: Rabbit liver hemostasis experiment. Type of data set: in vivo. As to the method: Hemostatic process: a peptide aqueous solution ① with a concentration of 3% was prepared, abdomen was opened after anesthesia of the rabbit, liver was exposed, and after the hepatic vessel was lacerated, the blood flowed out. After the blood flowed out was wiped off with a gauze, the peptide aqueous solution was sprayed onto the wound site immediately, and timing was conducted.

The mark [6] stands for this setting: 3% peptide aqueous solution sprayed onto liver wound.

As for “AC-Arg-Ala-Asp-Ala-Arg-Ala-Asp-Ala-Arg-Ala-Asp-Ala-Arg-Ala-Asp-Ala- amide [compound ⑤]”, in data set [1], the storage modulus entry is recorded as “less than 700 pa”. In addition, the Viscosity in data set [2] (concentration 1%) is on record as 955.17 mPa·s; in data set [2] (concentration 1%, listed as AC-(RADA)4-amide), “high viscosity; also recorded: high viscosities”; in data set [2] (concentration 2%), 1817.96 mPa·s; in data set [2] (concentration 2.5%), 2514.57 mPa·s. Also, in data set [3] (concentration of 2.5%), the fluidity of solution entry is listed as “almost lost fluidity”. In addition, the viscosity during dissolution result in data set [3] is listed as “increased with the increase of the concentrations”.
Turning to “AC-Arg-Val-Asp-Val-Arg-Val-Asp-Val-amide (Ac-RVDVRVDV-NH2) [comparison peptide without Pro in the viscosity test]”, the Viscosity is 658.25 mPa·s in data set [2] (concentration 1%); “high viscosities” in data set [2] (concentration 1%, listed as AC-RVDVRVDV-amide); 1546.21 mPa·s in data set [2] (concentration 2%).
With “AC-Pro-Arg-Val-Asp-Val-Arg-Pro-Asp-Val-Arg-Val-Asp-Pro-amide (Ac-PRVDVRPDVRVDP-NH2) [compound ④]”, in data set [3], the viscosity during dissolution entry is “increased with the increase of the concentrations”.
Turning to “AC-Pro-Arg-Val-Asp-Val-Arg-Val-Asp-Pro-amide (Ac-PRVDVRVDP-NH2) [compound ①]”, the Viscosity result in data set [2] (concentration 3%) is given as “Under the detection limit”. Also, the Viscosity entry in data set [2] (concentration 4%) is on record as “No viscosity numerical value was detected; also recorded: Under the detection limit”. Also, in data set [3] (before gelation), the fluidity of solution entry is reported as “good fluidity”. The “submucosal cushion layer (hematoxylin and eosin staining)” value in data set [4] was “fine and tight, and not loose”. Further, in the data set on rabbit back skin wound (3% peptide aqueous solution sprayed onto back skin incision), the “time until no blood flowed out” value was “about 20 s”. Further, the “gel formation on the wound” value in the data set on rabbit back skin wound (3% peptide aqueous solution sprayed onto back skin wound) was “formed immediately”. Besides, the “bleeding after hydrogel covering the surface was removed” value in the data set on rabbit back skin wound (3% peptide aqueous solution, back skin wound) was “no blood oozed out”. Also, in data set [5], the “submucosal filling (hematoxylin and eosin staining)” value is listed as “filled with the peptide gel”. In the data set with liver wound (setting [6]), the “gel formation on contact with blood” value is on record as “formed immediately” and the “time until bleeding completely stopped” value is “about 15 s”. In addition, the “hemostasis after excess hydrogel was removed” value in the data set with liver wound (3% peptide aqueous solution, liver wound) was “hemostasis still obtained”.
Consider “AC-Pro-Arg-Val-Asp-Val-Arg-Val-Asp-Val-amide (Ac-PRVDVRVDV-NH2) [compound ③]”, for which the viscosity during dissolution result in data set [3] is recorded as “increased with the increase of the concentrations”.
With “AC-Pro-Lys-Val-Glu-Val-Lys-Val-Glu-Pro-amide (Ac-PKVEVKVEP-NH2) [compound ②]”, the Viscosity result in data set [2] (concentration 3%) is recorded as “Under the detection limit”; in data set [2] (concentration 4%), “No viscosity numerical value was detected; also recorded: Under the detection limit”. Further, the fluidity of solution entry in data set [3] (before gelation) is “good fluidity”.
